The term Kd denotes the free concentration of one partner at which half of the binding sites on the other are occupied at equilibrium, for simple one-to-one binding. Read a low Kd as a tighter complex.

The values that follow come from article PMC5748844 (The Journal of Experimental Medicine, 2018).

The target of assay [1] is soluble RAGE (receptor for advanced glycation end products) (UniProt Q15109). The assay is described as follows: SPR.
Target sequence in this assay (Q15109 23-342): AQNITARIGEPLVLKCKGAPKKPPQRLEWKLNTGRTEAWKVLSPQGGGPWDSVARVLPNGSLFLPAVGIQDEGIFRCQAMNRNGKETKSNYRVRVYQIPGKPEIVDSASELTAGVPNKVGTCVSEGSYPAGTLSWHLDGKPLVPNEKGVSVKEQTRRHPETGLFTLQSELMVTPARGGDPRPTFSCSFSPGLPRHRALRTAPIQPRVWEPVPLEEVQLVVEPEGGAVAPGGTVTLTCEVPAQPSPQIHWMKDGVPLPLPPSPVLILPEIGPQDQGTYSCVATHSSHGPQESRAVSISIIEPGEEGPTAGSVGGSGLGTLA
The target is the same in assay [2]. The assay is described as follows: SPR. This is another data set of the same source. For orientation: In SPR one partner is held on a chip, and binding of the other changes the refractive index at the surface.
Target sequence in this assay (Q15109 23-342): as above

Like-named read-outs stand apart in the source and are kept apart here.

As for “nonoxidizable HMGB1 mutant 3S (from UniProt P63159 1-215) (natural protein)”, in assay [1], the Kd was 3.5 µM.

B1: fully reduced HMGB1 (High Mobility Group Box 1) (natural protein)
chain: MGKGDPKKPRGKMSSYAFFVQTCREEHKKKHPDASVNFSEFSKKCSERWKTMSAKEKGKFEDMAKADKARYEREMKTYIPPKGETKKKFKDPNAPKRPPSAFFLFCSEYRPKIKGEHPGLSIGDVAKKLGEMWNNTAADDKQPYEKKAAKLKEKYEKDIAAYRAKGKPDAAKKGVVKAEKSKKKKEEEDDEEDEEDEEEEEEEEDEDEEEDDDDE
modifications: all cysteines reduced
Molecule B1 showed a Kd in assay [2] of 3.5 µM.
